Measurements from US20120040894A1.
Numbered stars: 1 amine (or outer) side, 2 acyl side, 3 side chain; on linkers, the order of the positions; unused ones are H or OH. Square brackets hold non-standard residues; d marks the D form. Ends that are not written are not given here. Dap(AcBr) = N-(bromoacetyl)-L-2,3-diaminopropionic acid, O=C(CBr)NC[C@H](N[*:1])C(=O)[*:2]; Oic = O=C(O)[C@@H]1C[C@@H]2CCCC[C@@H]2N1; Dip = N[C@H](C(=O)O)C(c1ccccc1)c1ccccc1; β3hF = N[C@H](CC(=O)O)Cc1ccccc1; Chg = N[C@H](C(=O)O)C1CCCCC1; Phg = N[C@H](C(=O)O)c1ccccc1; Tle = CC(C)(C)[C@H](N)C(=O)O; β3hP = O=C(O)C[C@@H]1CCCN1; Dpa = not defined here

T1: ferroportin tagged at the C-terminus with green fluorescent protein (ECR293/Fpn-GFP cells)
T1 sequence (Q9NP59 whole entry, species assumed, looked up): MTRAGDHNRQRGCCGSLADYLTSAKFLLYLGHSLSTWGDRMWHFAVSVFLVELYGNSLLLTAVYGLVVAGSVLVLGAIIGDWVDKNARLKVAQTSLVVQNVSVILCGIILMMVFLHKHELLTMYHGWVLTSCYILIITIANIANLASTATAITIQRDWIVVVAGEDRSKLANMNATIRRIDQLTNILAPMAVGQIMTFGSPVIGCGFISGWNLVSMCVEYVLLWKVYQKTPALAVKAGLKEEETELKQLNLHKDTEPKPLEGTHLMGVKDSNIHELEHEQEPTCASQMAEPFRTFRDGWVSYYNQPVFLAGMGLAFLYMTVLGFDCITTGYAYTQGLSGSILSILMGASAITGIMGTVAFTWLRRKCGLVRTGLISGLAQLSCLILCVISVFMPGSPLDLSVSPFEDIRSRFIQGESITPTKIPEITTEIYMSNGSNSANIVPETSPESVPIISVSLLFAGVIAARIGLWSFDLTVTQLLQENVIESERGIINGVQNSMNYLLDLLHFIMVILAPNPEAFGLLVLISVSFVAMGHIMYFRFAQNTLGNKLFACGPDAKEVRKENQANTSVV


Molecular target: T1, ferroportin tagged at the C-terminus with green fluorescent protein (ECR293/Fpn-GFP cells)
Experiment: cell-based or functional assay

Row | EC50 (nM); loss of fluorescence of Fpn-GFP cells, flow cytometry | Binder
1 | 70 nM | D[Dpa]PICIF-NH2 (reading uncertain) [Pr40]
2 | 500 nM | DTHFPICI[β3hF]P[β3hP]K-NH2 [Pr21]
3 | 600 nM | DTHFPICI[β3hF]P[β3hP]R-NH2 [Pr22]
4 | 80 nM | DTH[Dip]PCCC[Dip]-NH2 (also: any disulfide between the Cys residues not recoverable) [Pr46]
5 | 200 nM | DTHFPICI[β3hF]PPR-NH2 [Pr20]
6 | > 3000 nM | D[Tle]H[Phg][Oic][Chg]C[Chg]F-NH2 (N-terminus assumed; SMILES CC(C)(C)[C@H](NC(=O)[C@@H](N)CC(=O)O)C(=O)N[C@@H](Cc1c[nH]cn1)C(=O)N[C@H](C(=O)N1[C@H](C(=O)N[C@H](C(=O)N[C@@H](CS)C(=O)N[C@H](C(=O)N[C@@H](Cc2ccccc2)C(N)=O)C2CCCCC2)C2CCCCC2)C[C@@H]2CCCC[C@@H]21)c1ccccc1) [Pr10]
7 | > 10000 nM | DTHFPI[Dap(AcBr)]IF-NH2 (N-terminus assumed; SMILES CC[C@H](C)[C@H](NC(=O)[C@H](CNC(=O)CBr)NC(=O)[C@@H](NC(=O)[C@@H]1CCCN1C(=O)[C@H](Cc1ccccc1)NC(=O)[C@H](Cc1c[nH]cn1)NC(=O)[C@@H](NC(=O)[C@@H](N)CC(=O)O)[C@@H](C)O)[C@@H](C)CC)C(=O)N[C@@H](Cc1ccccc1)C(N)=O) [Dap(AcBr)]
8 | 300 nM | D[Dpa]PICI[Dpa]-NH2 (reading uncertain) [Pr41]
9 | 700 nM | DTHFPICI[β3hF]PPK-NH2 [Pr19]
10 | > 3000 nM | D[Tle]HP[Oic][Chg]C[Chg]F-NH2 (also: retroinverted) [Pr11]
